Measured values from the domain aggregation screens of Martell et al. (2025).

Experiment: soluble fraction after stress (log2 fold change); higher = more stays soluble; pooled small domains, quantitative proteomics
Conditions: stress: 50 degC
Outline: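 The measure of aggregation propensity here is the base-two logarithm of the fold change in the soluble amount of each protein after stress. A higher value means more of that protein stays in solution. Stress was applied at 50°C to pooled libraries of small protein domains, read out by high-throughput quantitative proteomics.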

Sequence	soluble fraction (log2)
HMNGTEAIRRYIDQFASKHATTPRMLKLNERKQLIQELKNNGLLEIKKAVETVAQHLGISRASAYLYVKE	-0.303
HMVMTTVPEVLGMDIRTAASMLTGKNLKYDYDLVESDKPKDEVIEQDQAKGTEVPEGTVVKLKVSKGPA	0.0583
HMLPDVSITGHIFIRSGSRLNRIFVGESTYHVGDMLDGKWLIESINSDSLELRSGTQTTELPL	-2.58
HMAFDESLVRSIQELLSELGYSPGKIDGLLGAKTVAAIKAFELEINKDQLTGEPSEELLIALQLAIRSSKM	-1.13
HMAGPGAEVVDRLIAVLTGERPATAADQVLLSILKGLGIGGVVLPSERTGLGWSGLYQRVKEITDMN	-1.29
HMFERISELLTDEELAVYKRGRNANASSVPKHADIADYRRATGVEALFGYLYIKGEIDRINQLFELA	-0.23
HMEYQTVEKSEAEQIIQELEKAERLALKVYSKNDIITGISVSDGKSYYFSAELVPMLKNIIENPEIKIL	-0.623
HMTLDSLEKLSVNDLEKMLVNMPVGYKTIFLLSVIDEYSHKEIGELLGITPETSRSQLFRAIKWIKTNIF	-0.428
HMENEFEAYSDGSSIQLNDPSKATYVVFDRQGRLLHLFQNHSLSSLSIERKNQILIITRETADGVSVKKIV	-0.415
HMFESQYIGKIATAITDISAFSGRLKIYDENWEARTLGEDAPEIKKGAKVKIVRHDDLTMFVEKK	-0.034
HMEAKSSTKALLDVVLGRNGVSTANVAKSLNISVQNASTRLKKLSSEGVIMRSEVSSPTGGIEFIYS	-0.0504
HMQNSYSVEDLALKAGLSVDTIRYYQGLDLIAPPQKNGRRAIYGDEHLSRLDEIKKLALEGFSLRQISLLK	-0.652
HMSTLKSALDEIPGIGAARKRALLNHFGSTRVISSVGVKDLEQVEGVSKKIALLIYGYFHDK	-2.06
HMSDPDPAEQALLRQFMTRYAAYRRRGQHPAGAFRTASLEVFGQEPSGDLRDVIVDLESGLV	-0.137
HMEKGNEEALEQAREAILAVQSGEKYVDLDPANAAIRRKQHALAQASDLVSQSYGKDPNRYVRIFR	0.34
HMKDYKSALQELIQSGDKRVISYHTLKETGPSHNREFEAAVKLDGNIILGVGKGKTKKEAEQNAAHEALKK	0.172
HMSLPQSKDAVITILRTLPQLDTRAPEVYKLLGPHALDIILEDPEQVAKKINHVGVATAKLWQQALLGFK	-0.2
HMDEVVVVERGGVQITMSEIDAKIMELPVDVRPSYLDSPERLQNFVSNLLLEKQAAQLKSQY	-0.153
HMENDGQFLRAEREKYGLTLTDIYEHTHIPIKKLKAYEMWEEEMPPRTRALLELYFDQVAFEYDS	-0.8
HMREPQMVTVNGDKVTHGHAYRSNVNPEDWYFTARINGQQLKPQKMEPADVAAYDKKEIGVPELMQR	-0.0941
HMKQGKGIIVVDGKLMPEDFNVATLSLDEVESITVLKGEKAVALYGEKAKEREVLLITTQKG	0.423
HMAQLPADMSKVKSADISEAQLQEFIQKATSSGYNMNQIEMEFAKRGMSENEVSLLRPRLRRLMAS	-0.031
HMVLIQNEDVKDISNYPLLSSVPVFDVFNNKMIIPTFNKDSFNPLIYNFNFNSKRRLIYRVDNTNYLIVIK	0.0177

Sequence	soluble fraction (log2)
HMSLPKIVVPTDVTVSQLAKYLEVDAISIIKQLFGMGVVASLNQRLEDEIIQLIGNEFGKEIIFSE	-0.054
HMEFDIDAAIHAALEPQAVMRAWFGHEGREYPEDFGVVFFRGWESFTHQEKVEAVRDAKKVLDRAVR	-0.516
HMNIKYDFPTNSPLEMMRNLFDSNSQIINDLKDGFAMANSLNEQGLANFFAERIDKHQFWSWQLSASL	-0.399
HMIMTEKEKKLLNRYIMHDTIHKLYHEQNKSMRWIADNLGINFRTVQKYLDMDSGEFQKYSESISNR	-0.48
HMGTLSLLVQKLMAVGLEGAKASEIVERFDRERIERQINALPSRKIKSSRTGFLIRAIELDIPVE	-2.09
HMSGPVITEERNIANALISGLANMKETPTREQVERKAQQIAELFGYTGDLRNIITEAMISVDT	0.059
HMLTKAEEQVMDYLWKLEKAFVKDILDEFPEPKPAYTTVSTMVRILEKKGMVGYTAYGKNHQYYPL	-1.84
HMKTPIEFGSVYNDPVRYVIGMSIKSAESINQAIYDMMKIFGDENNMNKFDSLPDEQAVLDMVNSF	0.0157
HMSSLKKISIDELSPGMYVHSIVEQKGSVKIKSQGKVLKQAVVDALRKRGVKTLLIDLSKQFNPETGEP	-0.0124
HMTEISGIEKFLASGAINGIGPAMAKKIVAEFGEKTLEIIAKSPNELLKVPGIGKKTAEKISTSYLEQ	-0.0669
HMKTALQENVRAYRLERKWTQQALAEALEVSVGAVSKWESGVSRPELETLMRLAELFGVSTDALLGF	-1.75
HMRTDQYHYLAWKQVADELGIPFDEQVNERLRGVSRMASFDIILERYDGTMSDEEKIHWTDKKNEIYKSM	-0.948
HMEMVSMPGLTGSTLEFATKTLTENELKYEVVYIVDASAESGLIIRTYPTEGEMVSKKTSTIYLYIKE	-0.756
HMIPNEKEAARWDALTAEHTAKLNALEGDALDKVGSHEDVSIKRAGVGDAAFREKILSRTHPDDLERALST	0.0829
HMRPQYVDLFTKLSAEEAGAITSKLKELKVEYQLADNGSTIKVPQKDAAEIRLELANEGLPA	0.141
HMSDKFNALWIILNKLDKKEKVTARSLMEDLEVSERSVYRYITTLQVAGFPVDYDRAVNSYVFSDGYTLK	-4.08
HMRWAAIMGREVAAHSTPESLVEGKLHIRTDTTAWATQLRLMSADIVRRLNEVLGEGTVLEVDVRG	-1.96
HMSELPLTQKVAIVMVALGEEASGEVMKHLSDYEIEEITQAIAGLKNISVELMDQILEEYEQHLIAG	-0.459
HMTEKIVFNIDGQTGRIDKILADFMTGTSRSQIQAWVKDGNLMVNDKAVKSNYKVQDGDLLELTIPEPEQ	-0.171
HMESLNDRIKLVFKDSGLTQMDISKRLNIAQSSVSGIISGKANPSKRTLADIADRFDVNLEWLRDGTGPMK	0.337
HMLHNEFINDRIQSAINNLSEHFKIVIILRDIQELSYEEISNIVEVPLGTIKSRINRARIQLQAELLDL	0.269
HMNIEDFKDKVKELKQYTYQELVEDVKLKTDRADVILPASKIYLEAMQQAKVDSIIVPKVGLAEGVAR	0.0593
